Patent US20220064275A1 (SCHOLAR ROCK, published 2022)

Columns and labels:
[1] = target: hGARP-proTGFβ1 complex on cells (human, UniProt Q14392 20-662; P01137 30-390); assay: cell-based or functional assay
[2] = target: hLTBP3-proTGFβ1 complex made by transfected cells (cell-based potency assay) (human, UniProt Q9NS15 44-1303; P01137 30-390); assay: cell-based or functional assay
[3] = target: hLTBP1-proTGFβ1 complex made by transfected cells (cell-based potency assay) (human, UniProt Q14766 347-1721; P01137 30-390); assay: cell-based or functional assay
hLTBP1-proTGFβ1 complex made by transfected cells (cell-based potency assay), sequence (Q14766 347-1721, chain 1 of 2): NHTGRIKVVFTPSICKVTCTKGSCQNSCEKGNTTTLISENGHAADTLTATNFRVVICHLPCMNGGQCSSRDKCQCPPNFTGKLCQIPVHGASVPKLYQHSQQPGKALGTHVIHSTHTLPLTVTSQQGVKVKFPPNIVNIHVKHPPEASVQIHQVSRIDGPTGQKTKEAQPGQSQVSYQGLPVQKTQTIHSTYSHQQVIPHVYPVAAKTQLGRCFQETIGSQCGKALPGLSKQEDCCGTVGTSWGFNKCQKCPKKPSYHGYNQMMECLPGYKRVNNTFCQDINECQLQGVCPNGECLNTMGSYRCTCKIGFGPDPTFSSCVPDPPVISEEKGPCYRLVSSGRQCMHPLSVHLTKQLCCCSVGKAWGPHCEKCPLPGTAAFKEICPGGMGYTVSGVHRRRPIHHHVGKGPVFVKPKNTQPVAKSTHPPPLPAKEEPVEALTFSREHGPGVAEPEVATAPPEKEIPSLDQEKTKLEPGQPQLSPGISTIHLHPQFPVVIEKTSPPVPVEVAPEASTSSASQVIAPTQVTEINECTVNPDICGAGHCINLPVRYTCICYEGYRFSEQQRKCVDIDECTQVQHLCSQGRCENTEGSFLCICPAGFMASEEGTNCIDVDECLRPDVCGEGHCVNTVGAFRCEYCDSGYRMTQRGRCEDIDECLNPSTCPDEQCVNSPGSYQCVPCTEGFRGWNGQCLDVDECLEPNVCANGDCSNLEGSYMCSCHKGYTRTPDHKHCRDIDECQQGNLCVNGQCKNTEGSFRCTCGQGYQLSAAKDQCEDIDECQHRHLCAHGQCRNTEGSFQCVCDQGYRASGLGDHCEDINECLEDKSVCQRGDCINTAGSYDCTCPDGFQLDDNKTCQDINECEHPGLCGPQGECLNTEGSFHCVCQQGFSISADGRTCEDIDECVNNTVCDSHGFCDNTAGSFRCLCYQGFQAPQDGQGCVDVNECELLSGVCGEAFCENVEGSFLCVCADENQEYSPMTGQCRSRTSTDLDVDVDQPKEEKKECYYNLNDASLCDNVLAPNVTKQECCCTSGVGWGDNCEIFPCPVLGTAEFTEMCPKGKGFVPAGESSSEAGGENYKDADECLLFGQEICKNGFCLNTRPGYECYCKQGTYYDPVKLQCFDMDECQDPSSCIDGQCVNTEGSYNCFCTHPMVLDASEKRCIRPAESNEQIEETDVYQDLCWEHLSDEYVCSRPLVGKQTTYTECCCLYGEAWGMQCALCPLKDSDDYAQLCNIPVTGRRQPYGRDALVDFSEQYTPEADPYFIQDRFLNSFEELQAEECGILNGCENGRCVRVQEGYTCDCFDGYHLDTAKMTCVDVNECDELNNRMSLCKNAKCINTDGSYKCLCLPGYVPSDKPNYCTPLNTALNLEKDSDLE
hLTBP1-proTGFβ1 complex made by transfected cells (cell-based potency assay), sequence (P01137 30-390, chain 2 of 2): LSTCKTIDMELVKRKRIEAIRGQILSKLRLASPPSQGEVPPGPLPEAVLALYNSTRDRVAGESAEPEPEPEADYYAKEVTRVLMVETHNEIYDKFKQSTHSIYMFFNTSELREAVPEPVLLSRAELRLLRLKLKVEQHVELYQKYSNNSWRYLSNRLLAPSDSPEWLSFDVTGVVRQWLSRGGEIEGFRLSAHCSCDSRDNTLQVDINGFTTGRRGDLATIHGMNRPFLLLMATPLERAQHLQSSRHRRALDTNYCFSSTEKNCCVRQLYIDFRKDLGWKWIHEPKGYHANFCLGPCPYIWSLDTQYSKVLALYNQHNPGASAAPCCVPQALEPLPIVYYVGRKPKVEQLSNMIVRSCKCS

[4] = target: hLRRC33-proTGFβ1 complex on cells (human, UniProt Q86YC3 19-692; P01137 30-390); assay: cell-based or functional assay
hLRRC33-proTGFβ1 complex on cells, sequence (Q86YC3 19-692 limits assumed, chain 1 of 2): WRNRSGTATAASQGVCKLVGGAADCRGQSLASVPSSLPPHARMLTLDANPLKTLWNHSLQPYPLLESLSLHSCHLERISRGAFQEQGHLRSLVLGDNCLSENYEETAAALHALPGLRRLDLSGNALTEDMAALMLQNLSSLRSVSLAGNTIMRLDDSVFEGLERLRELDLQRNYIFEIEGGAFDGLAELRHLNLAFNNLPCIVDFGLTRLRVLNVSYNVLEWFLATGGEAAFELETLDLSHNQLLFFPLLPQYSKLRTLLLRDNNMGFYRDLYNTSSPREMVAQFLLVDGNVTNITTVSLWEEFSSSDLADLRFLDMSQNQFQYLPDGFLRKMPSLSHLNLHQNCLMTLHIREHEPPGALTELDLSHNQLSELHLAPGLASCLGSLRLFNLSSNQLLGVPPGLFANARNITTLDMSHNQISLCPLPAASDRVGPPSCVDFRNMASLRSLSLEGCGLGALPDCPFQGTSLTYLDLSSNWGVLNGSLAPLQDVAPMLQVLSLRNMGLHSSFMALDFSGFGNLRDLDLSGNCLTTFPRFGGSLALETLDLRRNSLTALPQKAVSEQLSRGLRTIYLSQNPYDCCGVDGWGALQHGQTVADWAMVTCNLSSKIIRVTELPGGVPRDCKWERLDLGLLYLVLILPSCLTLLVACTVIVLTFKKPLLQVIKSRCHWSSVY
hLRRC33-proTGFβ1 complex on cells, sequence (P01137 30-390 limits assumed, chain 2 of 2): as the sequence (P01137 30-390, chain 2 of 2) above

[5] = target: T1, human LRRC33-proTGFβ1 complex (human, UniProt Q86YC3 19-650; P01137 30-390); assay: BLI (Octet)
T1 construct: also called hLRRC33-proTGFβ1; hLRRC33
T1 sequence (Q86YC3 other isoform, or with tags, fused parts or gaps limits assumed, chain 1 of 2): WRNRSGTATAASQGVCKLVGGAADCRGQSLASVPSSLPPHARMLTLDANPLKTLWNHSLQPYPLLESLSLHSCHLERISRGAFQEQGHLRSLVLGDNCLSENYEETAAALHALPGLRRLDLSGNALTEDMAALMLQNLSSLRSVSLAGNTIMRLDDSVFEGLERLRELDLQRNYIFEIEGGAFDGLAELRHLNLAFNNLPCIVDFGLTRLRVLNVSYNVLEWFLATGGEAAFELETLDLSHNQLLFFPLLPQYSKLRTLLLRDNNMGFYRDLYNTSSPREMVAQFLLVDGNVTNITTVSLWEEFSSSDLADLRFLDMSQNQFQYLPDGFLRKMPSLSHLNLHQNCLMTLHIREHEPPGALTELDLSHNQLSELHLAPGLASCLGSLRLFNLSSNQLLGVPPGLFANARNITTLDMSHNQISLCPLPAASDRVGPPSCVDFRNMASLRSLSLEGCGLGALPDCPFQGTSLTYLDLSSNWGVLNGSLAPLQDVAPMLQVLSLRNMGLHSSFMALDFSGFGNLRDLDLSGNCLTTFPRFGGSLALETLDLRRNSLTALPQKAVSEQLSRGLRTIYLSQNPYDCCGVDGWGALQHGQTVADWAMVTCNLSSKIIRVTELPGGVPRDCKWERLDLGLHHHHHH
T1 sequence (P01137 30-390 limits assumed, chain 2 of 2): as the sequence (P01137 30-390, chain 2 of 2) above

[6] = target: T2, human LTBP1-proTGFβ1 complex (human, UniProt Q14766 873-1507); assay: BLI (Octet)
T2 construct: range 873-1507; biotinylated in Octet and MSD-SET; also called hLTBP1-proTGFβ1; hLTBP1
T2 sequence (Q14766 873-1507 limits assumed, chain 1 of 2): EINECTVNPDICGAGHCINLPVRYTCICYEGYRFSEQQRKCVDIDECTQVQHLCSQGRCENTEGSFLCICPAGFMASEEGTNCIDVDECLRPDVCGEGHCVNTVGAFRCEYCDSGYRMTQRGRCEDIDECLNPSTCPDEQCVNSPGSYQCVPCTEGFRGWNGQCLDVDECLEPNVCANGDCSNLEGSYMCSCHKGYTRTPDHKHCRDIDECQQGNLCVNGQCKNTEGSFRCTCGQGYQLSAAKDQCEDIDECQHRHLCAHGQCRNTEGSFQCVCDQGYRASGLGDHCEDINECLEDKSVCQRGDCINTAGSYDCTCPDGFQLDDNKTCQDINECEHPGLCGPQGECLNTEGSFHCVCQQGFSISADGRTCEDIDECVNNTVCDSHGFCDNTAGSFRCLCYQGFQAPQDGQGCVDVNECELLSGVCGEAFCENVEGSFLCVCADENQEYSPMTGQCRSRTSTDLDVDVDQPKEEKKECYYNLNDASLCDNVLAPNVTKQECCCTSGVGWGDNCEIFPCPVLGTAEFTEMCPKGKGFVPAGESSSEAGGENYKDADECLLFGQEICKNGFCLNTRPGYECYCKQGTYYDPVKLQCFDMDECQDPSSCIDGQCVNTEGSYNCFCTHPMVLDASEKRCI
T2 sequence (chain, as listed by the source limits assumed, chain 2 of 2): as the sequence (P01137 30-390, chain 2 of 2) above

[7] = target: T3, human LTBP3-proTGFβ1 complex (human, UniProt Q9NS15 866-1039); assay: BLI (Octet)
T3 construct: range 866-1039; also called hLTBP3-proTGFβ1; hLTBP3
T3 sequence (Q9NS15 866-1039 limits assumed, chain 1 of 2): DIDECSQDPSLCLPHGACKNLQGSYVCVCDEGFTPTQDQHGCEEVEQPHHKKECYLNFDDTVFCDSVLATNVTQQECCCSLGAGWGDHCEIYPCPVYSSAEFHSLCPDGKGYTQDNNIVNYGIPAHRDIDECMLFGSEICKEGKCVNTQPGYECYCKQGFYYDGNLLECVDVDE
T3 sequence (chain, as listed by the source limits assumed, chain 2 of 2): as the sequence (P01137 30-390, chain 2 of 2) above

[8] = target: T4, human GARP-proTGFβ1 complex (human, UniProt Q14392 20-627; P01137 30-390); assay: BLI (Octet)
T4 construct: also called hGARP-proTGFβ1; hGARP
T4 sequence (Q14392 20-627, chain 1 of 2): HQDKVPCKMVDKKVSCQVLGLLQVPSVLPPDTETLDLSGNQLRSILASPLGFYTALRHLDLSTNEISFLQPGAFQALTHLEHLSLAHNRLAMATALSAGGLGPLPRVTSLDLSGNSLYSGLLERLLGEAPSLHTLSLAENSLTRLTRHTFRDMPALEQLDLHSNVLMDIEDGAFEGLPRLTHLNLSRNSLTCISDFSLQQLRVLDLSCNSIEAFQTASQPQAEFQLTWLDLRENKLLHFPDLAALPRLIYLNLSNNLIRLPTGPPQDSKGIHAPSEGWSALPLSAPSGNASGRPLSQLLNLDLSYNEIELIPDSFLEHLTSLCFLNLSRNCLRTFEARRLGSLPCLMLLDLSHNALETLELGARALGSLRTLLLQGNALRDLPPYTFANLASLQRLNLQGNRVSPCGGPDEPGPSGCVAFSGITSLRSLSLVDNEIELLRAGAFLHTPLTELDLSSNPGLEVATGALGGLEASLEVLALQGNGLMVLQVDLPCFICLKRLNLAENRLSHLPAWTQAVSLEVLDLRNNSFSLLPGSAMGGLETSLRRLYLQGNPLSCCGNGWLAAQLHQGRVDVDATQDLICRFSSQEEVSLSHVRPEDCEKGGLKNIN
T4 sequence (P01137 30-390, chain 2 of 2): as the sequence (P01137 30-390, chain 2 of 2) above

| Binder | IC50, reporter cell assay of TGFβ1 activation [1] [nM] | IC50, reporter cell assay of TGFβ1 activation [2] [nM] | IC50, reporter cell assay of TGFβ1 activation [3] [nM] | IC50, reporter cell assay of TGFβ1 activation [4] [nM] | Kd [5] [nM] | Kd [6] [nM] | Kd [7] [nM] | Kd [8] [nM] |
| --- | --- | --- | --- | --- | --- | --- | --- | --- |
| Ab5 (antibody, V domains shown) VH: EVQLVESGGGLVQPGGSLRLSCAASGFTFSSFSMDWVRQAPGKGLEWVSYISPDASTIYYADSVKGRFTISRDNAKNSLYLQMNSLRAEDTAVYYCARGVLDYGDMLDPWGQGTLVTVSS VL: DIQMTQSPSSLSASVGDRVTITCQASQDITNYLNWYQQKPGKAPKLLIYDASNLETGVPSRFSGSGSGTDFTFTISSLQPEDIATYYCQQADNHPPWTFGGGTKVEIK | 0.14 | 1 | 1.29 | 0.616 |  |  |  |  |
| Ab27 (antibody, V domains shown) VH: EVQLVESGGGLVQPGGSLRLSCAASGFTFSFYAMNWVRQAPGKGLEWVSYISPDASTIYYADSVKGRFTISRDNAKNSLYLQMNSLRAEDTAVYYCARGVLDYGDMLDPWGQGTLVTVSS VL: DIQMTQSPSSLSASVGDRVTITCQASQDITNYLNWYQQKPGKAPKLLIYDASNLETGVPSRFSGSGSGTDFTFTISSLQPEDIATYYCQQADNHPPWTFGGGTKVEIK |  |  |  |  | 0.299 | 0.178 | 0.238 | 0.424 |
| Ab28 (antibody, V domains shown) VH: EVQLVESGGGLVQPGGSLRLSCAASGFTFSSFSMDWVRQAPGKGLEWVSYISPDASTIYYADSVKGRFTISRDNAKNSLYLQMNSLRAEDTAVYYCVRGVLDYGDMLDPWGQGTLVTVSS VL: DIQMTQSPSSLSASVGDRVTITCQASQDITNYLNWYQQKPGKAPKLLIYDASNLETGVPSRFSGSGSGTDFTFTISSLQPEDIATYYCQQADNHPPWTFGGGTKVEIK |  |  |  |  | 0.409 | 0.34 | 0.316 | 0.797 |
| Ab16 (antibody, V domains shown) VH: EVQLLESGGGLVQPGGSLRLSCAASGFTFSNYAMSWVRQAPGKGLEWVSAISGSGFTTYYADSVKGRFTISRDNSKNTLYLQMNSLRAEDTAVYYCARVSSGHWDFDYWGQGTLVTVSS VL: DIQLTQSPSSLSASVGDRVTITCRASQSISSYLNWYQQKPGKAPKLLIYAASNLQSGVPSRFSGSGSGTDFTLTISSLQPEDFATYYCQQTYTVPLTFGGGTKVEIK |  |  |  |  | 0.631 | 0.181 | 0.132 | 4.16 |
| Ab14 (antibody, V domains shown) VH: EVQLLESGGGLVQPGGSLRLSCAASGFTFSAYAMTWVRQAPGKGLEWVSAISGTGGSTYYADSVKGRFTISRDNSKNTLYLQMNSLRAEDTAVYYCARVSSGHWDFDYWGQGTLVTVSS VL: DIQMTQSPSSLSASVGDRVTITCRASQSISSYLNWYQQKPGKAPKLLIYAASSLQSGVPSRFSGSGSGTDFTLTISSLQPEDFATYYCQQVYDPPLTFGGGTKVEIK |  |  |  |  | 1.34 | 0.336 | 0.346 | 10.5 |
| Ab15 (antibody, V domains shown) VH: EVQLVESGGGVVQPGRSLRLSCAASGFTFSDYAMVWVRQAPGKGLEWVSAISGSGFTTYYADSVKGRFTISRDNSKNTLYLQMNSLRAEDTAVYYCARVSSGHWDFDYWGQGTLVTVSS VL: DIQLTQSPSSLSASVGDRVTITCRASQSISSYLNWYQQKPGKAPKLLIYAASNLQSGVPSRFSGSGSGTDFTLTISSLQPEDFATYYCQQTYTVPLTFGGGTKVEIK |  |  |  |  | 0.702 | 0.15 | 0.168 | 7.01 |
| Ab17 (antibody, V domains shown) VH: EVQLLESGGGVVQPGGSLRLSCAASGFTFSSFAMTWVRQAPGKGLEWVSAISGSGAATYFADSVKGRFTISRDNSKNTLYLQMNSLRAEDTAVYYCARVSSGHWDFDYWGQGTLVTVSS VL: DIQLTQSPSSLSASVGDRVTITCRASQSISSYLNWYQQKPGKAPKLLIYAASNLQSGVPSRFSGSGSGTDFTLTISSLQPEDFATYYCQQTYTVPLTFGGGTKVEIK |  |  |  |  | 0.658 | 0.174 | 0.208 | 8.62 |
| Ab18 (antibody, V domains shown) VH: QVQLVESGGGVVQPGRSLRLSCAASGFTFSDYAMVWVRQAPGKGLEWVSAISGSGAATYFADSVKGRFTISRDNSKNTLYLQMNSLRAEDTAVYYCATVSSGHWDFDYWGQGTLVTVSS VL: DIQLTQSPSSLSASVGDRVTITCRASQSISSYLNWYQQKPGKAPKLLIYAASNLQSGVPSRFSGSGSGTDFTLTISSLQPEDFATYYCQQTYTVPLTFGGGTKVEIK |  |  |  |  | 1.02 | 0.312 | 0.257 | 11.5 |
| Ab1 (antibody, V domains shown) VH: EVQLLESGGGLVQPGGSLRLSCAASGFTFRNYAMSWVRQAPGKGLEWVSSISGSGGATYYADSVKGRFTISRDNSKNTLYLQMNSLRAEDTAVYYCARVSSGHWDFDYWGQGTLVTVSS VL: DIQLTQSPSSLSASVGDRVTITCQASQDISNFLNWYQQKPGKAPKLLIYDASNLETGVPSRFSGSGSGTDFTFTISSLQPEDIATYYCQQVFNPPLTFGGGTKVEIK | 3.71 | 2.71 | 14.5 | 5.37 |  |  |  |  |
| Ab36 (antibody, V domains shown) VH: EVQLLESGGGLVQPGGSLRLSCAASGFTFRNYAMSWVRQAPGKGLEWVSSISGSGGATYYADSVKGRFTISRDNSKNTLYLQMNSLRAEDTAVYYCARVSSGHWDLDYWGQGTLVTVSS VL: not shown |  |  |  |  | 1.42 | 0.353 | 0.415 | 12.8 |
| Ab7 (antibody, V domains shown) VH: EVQLLESGGGLVQPGGSLRLSCAASGFTFADYAMTWVRQAPGKGLEWVSAISGTGAHTYYADSVKGRFTISRDNSKNTLYLQMNSLRAEDTAVYYCARVSSGHWDFDYWGQGTLVTVSS VL: not shown |  |  |  |  | 10.3 | 0.487 | 0.417 | 18 |
| Ab8 (antibody, V domains shown) VH: QVQLVESGGGVVQPGRSLRLSCAASGFTFSDYAMVWVRQAPGKGLEWVSAISGSGFTTYYADSVKGRFTISRDNSKNTLYLQMNSLRAEDTAVYYCARVSSGHWDFDYWGQGTLVTVSS VL: not shown |  |  |  |  | 10 | 0.329 | 0.302 | 15.4 |
| Ab9 (antibody, V domains shown) VH: QVQLVESGGGVVQPGGSLRLSCAASGFTFSSFAMTWVRQAPGKGLEWVSAISGSGAATYFADSVKGRFTISRDNSKNTLYLQMNSLRAEDTAVYYCARVSSGHWDFDYWGQGTLVTVSS VL: not shown |  |  |  |  | 1.3 | 0.348 | 0.284 | 15.5 |
| Ab10 (antibody, V domains shown) VH: EVQLLESGGGLVQPGGSLRLSCAASGFTFRNYAMSWVRQAPGKGLEWVSSISGSGGATYYADSVKGRFTISRDNSKNTLYLQMNSLRAEDTAVYYCARVSSGHWDFDYWGQGTLVTVSS VL: not shown |  |  |  |  | 1.06 | 0.262 | 0.319 | 10.2 |
| Ab13 (antibody, V domains shown) VH: EVQLLESGGGLVQPGGSLRLSCAASGFTFADYAMTWVRQAPGKGLEWVSAISSFASAIYYADSVKGRFTISRDNSKNTLYLQMNSLRAEDTAVYYCARVSSGHWDFDYWGQGTLVTVSS VL: DIQMTQSPSSLSASVGDRVTITCRASQSISSYLNWYQQKPGKAPKLLIYAASSLQSGVPSRFSGSGSGTDFTLTISSLQPEDFATYYCQQVYDPPLTFGGGTKVEIK |  |  |  |  | 1.4 | 0.276 | 0.249 | 10 |
